This note sets out measurements from PMC2475608.

This test deals with EcoR124I MTase (M2S1 complex) (UniProt P10484). As to the kind of experiment: native gel or EMSA. For orientation: Mobility shift assays separate free from complexed probe on a gel.
Chain of UniProt P10484 (P10484 whole entry, chain 1 of 2): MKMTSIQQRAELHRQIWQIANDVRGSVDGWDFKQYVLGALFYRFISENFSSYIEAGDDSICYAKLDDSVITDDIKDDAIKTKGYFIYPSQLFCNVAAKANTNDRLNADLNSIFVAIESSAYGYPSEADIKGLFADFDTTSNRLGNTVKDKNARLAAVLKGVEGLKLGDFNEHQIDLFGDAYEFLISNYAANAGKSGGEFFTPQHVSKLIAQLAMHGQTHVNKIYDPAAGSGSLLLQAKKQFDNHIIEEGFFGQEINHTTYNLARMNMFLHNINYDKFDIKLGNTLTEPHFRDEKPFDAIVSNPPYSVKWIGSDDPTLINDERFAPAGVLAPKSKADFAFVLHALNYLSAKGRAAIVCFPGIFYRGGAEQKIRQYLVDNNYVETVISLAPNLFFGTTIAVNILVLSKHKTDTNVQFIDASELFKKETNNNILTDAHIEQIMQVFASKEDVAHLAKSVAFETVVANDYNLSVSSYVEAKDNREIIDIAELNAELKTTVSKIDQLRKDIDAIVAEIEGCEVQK
Chain of UniProt P10484 (P10485 whole entry, chain 2 of 2, further chain): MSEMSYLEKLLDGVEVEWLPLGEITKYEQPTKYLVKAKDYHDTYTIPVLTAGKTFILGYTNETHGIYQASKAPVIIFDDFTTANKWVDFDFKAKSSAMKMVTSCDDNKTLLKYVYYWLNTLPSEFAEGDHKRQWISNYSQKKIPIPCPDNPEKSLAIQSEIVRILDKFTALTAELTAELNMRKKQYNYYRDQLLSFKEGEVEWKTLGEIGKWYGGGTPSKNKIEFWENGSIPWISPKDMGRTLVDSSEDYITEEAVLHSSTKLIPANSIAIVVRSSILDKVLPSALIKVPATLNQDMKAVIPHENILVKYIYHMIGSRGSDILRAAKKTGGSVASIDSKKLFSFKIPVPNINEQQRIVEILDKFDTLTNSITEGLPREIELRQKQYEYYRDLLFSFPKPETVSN

B1: EcoR124I HsdR subunit, wild type (enzyme)
chain: MTHQTHTIAESNNFIVLDKYIKAEPTGDSYQSESDLERELIQDLRNQGYEFISVKSQSAMLANVREQLQNLNGVVFNDSEWRRFTEQYLDNPSDGILDKTRKIHIDYICDFIFDDERLENIYLIDKKNLMRNKVQIIQQFEQAGSHANRYDVTILVNGLPLVQIELKKRGVAIREAFNQIHRYSKESFNSENSLFKYLQLFVISNGTDTRYFANTTKRDKNSFDFTMNWAKSDNTLIKDLKDFTATCFQKHTLLNVLVNYSVFDSSQTLLVMRPYQIAATERILWKIKSSFTAKNWSKPESGGYIWHTTGSGKTLTSFKAARLATELDFIDKVFFVVDRKDLDYQTMKEYQRFSPDSVNGSENTAGLKRNLDKDDNKIIVTTIQKLNNLMKAESDLPVYNQQVVFIFDECHRSQFGEAQKNLKKKFKRYYQFGFTGTPIFPENALGSETTASVFGRELHSYVITDAIRDEKVLKFKVDYNDVRPQFKSLETETDEKKLSAAENQQAFLHPMRIQEITQYILNNFRQKTHRTFPGSKGFNAMLAVSSVDAAKAYYATFKRLQEEAANKSATYKPLRIATIFSFAANEEQNAIGEISDETFDTSAMDSSAKEFLDAAIREYNSHFKTNFSTDSNGFQNYYRDLAQRVKNQDIDLLIVVGMFLTGFDAPTLNTLFVDKNLRYHGLMQAFSRTNRIYDATKTFGNIVTFRDLERSTIDAITLFGDKNTKNVVLEKSYTEYMEGFTDAATGEAKRGFMTVVSELEQRFPDPTSIESEKEKKDFVKLFGEYLRAENILQNYDEFATLKALQQIDLSDPVAVEKFKAEHYVDDEKFAELQTIRLPADRKIQDYRSAYNDIRDWQRREKEAEKKEKSTTDWDDVVFEVDLLKSQEINLDYILGLIFEHNRQNKGKGEMIEEVKRLIRSSLGNRAKEGLVVDFIQQTNLDDLPDKASIIDAFFTFAQREQQREAEALIKEENLNEDAAKRYIRTSLKREYATENGTELNETLPKLSPLNPQYKTKKQAVFQKIVSFIEKFKGVGGKI
Molecule B1 displayed a K1,app (first HsdR on the DNA-bound MTase, R1 complex) of 15 nM.

B2: EcoR124I HsdR Y183A (enzyme)
chain: MTHQTHTIAESNNFIVLDKYIKAEPTGDSYQSESDLERELIQDLRNQGYEFISVKSQSAMLANVREQLQNLNGVVFNDSEWRRFTEQYLDNPSDGILDKTRKIHIDYICDFIFDDERLENIYLIDKKNLMRNKVQIIQQFEQAGSHANRYDVTILVNGLPLVQIELKKRGVAIREAFNQIHRASKESFNSENSLFKYLQLFVISNGTDTRYFANTTKRDKNSFDFTMNWAKSDNTLIKDLKDFTATCFQKHTLLNVLVNYSVFDSSQTLLVMRPYQIAATERILWKIKSSFTAKNWSKPESGGYIWHTTGSGKTLTSFKAARLATELDFIDKVFFVVDRKDLDYQTMKEYQRFSPDSVNGSENTAGLKRNLDKDDNKIIVTTIQKLNNLMKAESDLPVYNQQVVFIFDECHRSQFGEAQKNLKKKFKRYYQFGFTGTPIFPENALGSETTASVFGRELHSYVITDAIRDEKVLKFKVDYNDVRPQFKSLETETDEKKLSAAENQQAFLHPMRIQEITQYILNNFRQKTHRTFPGSKGFNAMLAVSSVDAAKAYYATFKRLQEEAANKSATYKPLRIATIFSFAANEEQNAIGEISDETFDTSAMDSSAKEFLDAAIREYNSHFKTNFSTDSNGFQNYYRDLAQRVKNQDIDLLIVVGMFLTGFDAPTLNTLFVDKNLRYHGLMQAFSRTNRIYDATKTFGNIVTFRDLERSTIDAITLFGDKNTKNVVLEKSYTEYMEGFTDAATGEAKRGFMTVVSELEQRFPDPTSIESEKEKKDFVKLFGEYLRAENILQNYDEFATLKALQQIDLSDPVAVEKFKAEHYVDDEKFAELQTIRLPADRKIQDYRSAYNDIRDWQRREKEAEKKEKSTTDWDDVVFEVDLLKSQEINLDYILGLIFEHNRQNKGKGEMIEEVKRLIRSSLGNRAKEGLVVDFIQQTNLDDLPDKASIIDAFFTFAQREQQREAEALIKEENLNEDAAKRYIRTSLKREYATENGTELNETLPKLSPLNPQYKTKKQAVFQKIVSFIEKFKGVGGKI
As to B2, the K1,app (first HsdR on the DNA-bound MTase, R1 complex) was found to be 15 nM.

B3: EcoR124I HsdR Q179K (enzyme)
chain: MTHQTHTIAESNNFIVLDKYIKAEPTGDSYQSESDLERELIQDLRNQGYEFISVKSQSAMLANVREQLQNLNGVVFNDSEWRRFTEQYLDNPSDGILDKTRKIHIDYICDFIFDDERLENIYLIDKKNLMRNKVQIIQQFEQAGSHANRYDVTILVNGLPLVQIELKKRGVAIREAFNKIHRYSKESFNSENSLFKYLQLFVISNGTDTRYFANTTKRDKNSFDFTMNWAKSDNTLIKDLKDFTATCFQKHTLLNVLVNYSVFDSSQTLLVMRPYQIAATERILWKIKSSFTAKNWSKPESGGYIWHTTGSGKTLTSFKAARLATELDFIDKVFFVVDRKDLDYQTMKEYQRFSPDSVNGSENTAGLKRNLDKDDNKIIVTTIQKLNNLMKAESDLPVYNQQVVFIFDECHRSQFGEAQKNLKKKFKRYYQFGFTGTPIFPENALGSETTASVFGRELHSYVITDAIRDEKVLKFKVDYNDVRPQFKSLETETDEKKLSAAENQQAFLHPMRIQEITQYILNNFRQKTHRTFPGSKGFNAMLAVSSVDAAKAYYATFKRLQEEAANKSATYKPLRIATIFSFAANEEQNAIGEISDETFDTSAMDSSAKEFLDAAIREYNSHFKTNFSTDSNGFQNYYRDLAQRVKNQDIDLLIVVGMFLTGFDAPTLNTLFVDKNLRYHGLMQAFSRTNRIYDATKTFGNIVTFRDLERSTIDAITLFGDKNTKNVVLEKSYTEYMEGFTDAATGEAKRGFMTVVSELEQRFPDPTSIESEKEKKDFVKLFGEYLRAENILQNYDEFATLKALQQIDLSDPVAVEKFKAEHYVDDEKFAELQTIRLPADRKIQDYRSAYNDIRDWQRREKEAEKKEKSTTDWDDVVFEVDLLKSQEINLDYILGLIFEHNRQNKGKGEMIEEVKRLIRSSLGNRAKEGLVVDFIQQTNLDDLPDKASIIDAFFTFAQREQQREAEALIKEENLNEDAAKRYIRTSLKREYATENGTELNETLPKLSPLNPQYKTKKQAVFQKIVSFIEKFKGVGGKI
B3 yielded a K1,app (first HsdR on the DNA-bound MTase, R1 complex) of 10 nM.

B4: EcoR124I HsdR Y183F (enzyme)
chain: MTHQTHTIAESNNFIVLDKYIKAEPTGDSYQSESDLERELIQDLRNQGYEFISVKSQSAMLANVREQLQNLNGVVFNDSEWRRFTEQYLDNPSDGILDKTRKIHIDYICDFIFDDERLENIYLIDKKNLMRNKVQIIQQFEQAGSHANRYDVTILVNGLPLVQIELKKRGVAIREAFNQIHRFSKESFNSENSLFKYLQLFVISNGTDTRYFANTTKRDKNSFDFTMNWAKSDNTLIKDLKDFTATCFQKHTLLNVLVNYSVFDSSQTLLVMRPYQIAATERILWKIKSSFTAKNWSKPESGGYIWHTTGSGKTLTSFKAARLATELDFIDKVFFVVDRKDLDYQTMKEYQRFSPDSVNGSENTAGLKRNLDKDDNKIIVTTIQKLNNLMKAESDLPVYNQQVVFIFDECHRSQFGEAQKNLKKKFKRYYQFGFTGTPIFPENALGSETTASVFGRELHSYVITDAIRDEKVLKFKVDYNDVRPQFKSLETETDEKKLSAAENQQAFLHPMRIQEITQYILNNFRQKTHRTFPGSKGFNAMLAVSSVDAAKAYYATFKRLQEEAANKSATYKPLRIATIFSFAANEEQNAIGEISDETFDTSAMDSSAKEFLDAAIREYNSHFKTNFSTDSNGFQNYYRDLAQRVKNQDIDLLIVVGMFLTGFDAPTLNTLFVDKNLRYHGLMQAFSRTNRIYDATKTFGNIVTFRDLERSTIDAITLFGDKNTKNVVLEKSYTEYMEGFTDAATGEAKRGFMTVVSELEQRFPDPTSIESEKEKKDFVKLFGEYLRAENILQNYDEFATLKALQQIDLSDPVAVEKFKAEHYVDDEKFAELQTIRLPADRKIQDYRSAYNDIRDWQRREKEAEKKEKSTTDWDDVVFEVDLLKSQEINLDYILGLIFEHNRQNKGKGEMIEEVKRLIRSSLGNRAKEGLVVDFIQQTNLDDLPDKASIIDAFFTFAQREQQREAEALIKEENLNEDAAKRYIRTSLKREYATENGTELNETLPKLSPLNPQYKTKKQAVFQKIVSFIEKFKGVGGKI
B4 returned a K1,app (first HsdR on the DNA-bound MTase, R1 complex) of 14 nM.
